Source: patent US20140056918A1 (Novo Nordisk, published 2014)

T1: Human OSCAR-ECD (recombinant extracellular domain of human OSCAR) (human, UniProt Q8IYS5 19-218)
T1 construct: also called OSACAR-ECD
T1 chain: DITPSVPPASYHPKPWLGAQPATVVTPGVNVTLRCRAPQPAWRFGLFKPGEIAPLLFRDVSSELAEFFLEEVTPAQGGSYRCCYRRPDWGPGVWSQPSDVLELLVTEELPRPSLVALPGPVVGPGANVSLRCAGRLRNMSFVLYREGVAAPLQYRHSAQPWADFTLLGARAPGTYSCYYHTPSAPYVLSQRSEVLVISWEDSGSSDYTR

T2: Human OSCAR (osteoclast-associated receptor), full length, on cells (human)
T2 chain: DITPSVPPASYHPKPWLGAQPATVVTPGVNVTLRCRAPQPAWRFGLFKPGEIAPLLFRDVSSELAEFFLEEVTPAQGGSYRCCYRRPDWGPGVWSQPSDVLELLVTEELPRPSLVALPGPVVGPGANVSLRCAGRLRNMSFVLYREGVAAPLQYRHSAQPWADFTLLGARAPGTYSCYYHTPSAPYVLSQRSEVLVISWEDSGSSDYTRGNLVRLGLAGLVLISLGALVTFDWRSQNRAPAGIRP


Legend:
[1] = biological target: T1, Human OSCAR-ECD (recombinant …); test: SPR competition, 50 nM OSCAR-ECD premixed with mAb, over immobilised collagen II; set-up: unit not given here
Procedure: (§1) The experiment was performed using a Biacore T 100 instrument (GE Healthcare). Human collagen 1 (Sigma, # C5483) and human collagen 2 (Millipore #CC052) were diluted with 10 mM NaOAc, pH 4.5 and immobilized on a Biacore CM3 sensor chip (GE Healthcare) using amine coupling chemistry (GE Healthcare). Immobilization was performed according to the standard procedure, but at 5° C. in order to prevent aggregation collagens, with immobilized levels of ca 250 RU on flow cells (FC) 2 and 4. A blank immobilization was performed on FC 1 & 3, which were used as reference cells. HBS-EP buffer (10 mM HEPES, 150 mM NaCl, 3 mM EDTA, 0.05% Polysorbat P20, pH7.4) was used as running buffer for the immobilization. Buffer containing HBS-EP/+0.1% BSA was used for the competition assay. The competition experiment was performed at 5° C. at a flow rate of 50 μl/min. […] OSCAR was mixed with various concentrations of anti-OSCAR antibodies ranging from 0-10 μg/ml prior to injection. Binding curves were measured for 360 s followed by 240 s of dissociation. The chip surface was regenerated for 2×20 s with 10 mM glycine, pH 2.0 between assays.
(§2) Human collagen I and II were immobilized to the surface of a Biacore sensor chip by amine coupling. […] It was hypothesized that an antibody inhibiting binding of OSCAR to collagen would lead to a concentration-dependent loss of signal, whereas a non-inhibiting antibody would enhance the signal due to the increased mass of the OSCAR-antibody complex.

[2] = biological target: T1, Human OSCAR-ECD (recombinant …); test: SPR competition, 50 nM OSCAR-ECD premixed with mAb, over immobilised collagen I
Procedure: as §1, §2

[3] = biological target: T1, Human OSCAR-ECD (recombinant …); test: SPR (Biacore T100), mAb coupled or captured on chip, OSCAR-ECD injected, 1:1 fit
Procedure: The kinetic parameters (kₐ, kd and KD) for the interaction were calculated using a 1:1 interaction Langmuir fitting model.

[4] = biological target: T2, Human OSCAR (osteoclast-associated …); test: cell-based or functional assay

binding of OSCAR-ECD to collagen II with 10 µg/mL mAb [1] | binding of OSCAR-ECD to collagen I with 10 µg/mL mAb [2] | Kd [3] [nM] | IC50 (IL-8), ColI-induced IL-8 release from moDC, Donor 4 [4] [nM] | IC50 (IL-8), ColI-induced IL-8 release from moDC, Donor 5 [4] [nM] | IC50 (IL-8), ColI-induced IL-8 release from moDC, Donor 6 [4] [nM] | Binder
-1.5 | -3.4 | 0.5 | 0.02 | 0.46 | 1.12 | 16F119 (antibody, V domains shown, Fully human mAb from HuMab mice; also called 16F119 (Hu); 16F119A5) VH: QVQLVQSGAEVKKPGSSVKVSCKVSGGTFSNYAISWVRQAPGQGLEWMGRIIPILGIAAYAQRFRDRVTITADKFTSTVYMELSSLRSEDTAVYYCASGQLGTPYWYFDLWGRGTLVTVSS VL: not shown
-1.9 | -3.2 | 0.3 | 0.06 | 0.1 | 0.21 | 16F56 (antibody, V domains shown, Fully human mAb from HuMab mice; also called 16F56 (Hu); 16F56A2) VH: QVQLVQSGAEVKKPGSSVKVSCKASGGTFSNYAISWVRQAPGQGLEWMGRIIPILGIAHNAQKFQDRVTITADKSTSTAYMELSSLRSEDTAVYYCASPSSGKGLPYWFFDLWGRGTLVTVSS VL: DIQMTQSPSFLSASVGDRVTITCRASQSISSYLNWYQQKPGKAPKLLIYAASSLQSGVPSRFSGSGSGTDFTLTISSLQPEDFATYYCQCGYSTPLTFGGGTKVEIKR
1 | 1.7 |  | 0.86 | > 20 | 6.56 | 6F6B (antibody, V domains shown, Mouse anti-OSCAR mAb) VH: EVQLQQSGAELVKPGASVKLSCTASGFNIKDTYVHWVKQRPDQGLEWIGRIDPAIGNTKYDPKFRGKATITADSSSNTAYLQLSSLTSEDTAVYYCARLSYGNYGLDYSMDYWGQGTSVTVSS VL: DIVLTQSPATLSVTPGDSVSLSCRASQSITNNLHWYQQKSHESPRLLIKYASQSISGIPSRFRGSGSGTDFTLSINSVETEDFGVYFCQQSNTWPRTFGGGTKLEIKR
13.8 | 9.5 |  | 0.69 | > 20 | 8.06 | 6F3A (antibody, V domains shown, Mouse anti-OSCAR mAb) VH: EVQLQQSGAELVKPGASVKLSCTASGFNIKDTYVHWVKQRPDQGLEWIGRIDPAIGNTKYDPKFRGKATITADSSSNTAYLQLSSLTSEDTAVYYCARLSYGNYGLDYSMDYWGQGTSVTVSS VL: DIVLTQSPATLSVTPGDSVSLSCRASQSITNNLHWYQQKSHESPRLLIKYASQSISGIPSRFRGSGSGTDFTLSINSVETEDFGVYFCQQSNTWPRTFGGGTKLEIKR
